Here are results for 1 molecule from article PMC9454738, “An FDA-Approved Antifungal, Ketoconazole, and Its Novel Derivative Suppress tGLI1-Mediated Breast Cancer Brain Metastasis by Inhibiting the DNA-Binding Activity of Brain Metastasis-Promoting Transcrip”.

The series concerns the target N-tGLI1 (N-terminal truncated GLI1) (UniProt P08151-2 1-390). Kind of series: EMSA; no drug; 5X binding buffer as printed: 50 mM Tris pH 7.5, 50 mM NaCl, 200 mM KCl, 5 mM MgCl2, 10 mM EDTA, 5 mM DTT, 250 ug/mL BSA, 25% glycerol; 50 ng/uL poly dI-dC; ~600 ng protein, 5 pmol probe in 20 uL; 20 min on ice (drug tests: 30 min preincubation on ice for GLI1 or at RT for N-tGLI1, then 30 min with probe); 6% TBE gel. The note with it: protein: recombinant; tags: MBP tag cleaved with HRV 3C protease; label: 5' 6-FAM on both strands; blunt.

N-tGLI1 (N-terminal truncated GLI1), sequence (P08151 other isoform, or with tags, fused parts or gaps): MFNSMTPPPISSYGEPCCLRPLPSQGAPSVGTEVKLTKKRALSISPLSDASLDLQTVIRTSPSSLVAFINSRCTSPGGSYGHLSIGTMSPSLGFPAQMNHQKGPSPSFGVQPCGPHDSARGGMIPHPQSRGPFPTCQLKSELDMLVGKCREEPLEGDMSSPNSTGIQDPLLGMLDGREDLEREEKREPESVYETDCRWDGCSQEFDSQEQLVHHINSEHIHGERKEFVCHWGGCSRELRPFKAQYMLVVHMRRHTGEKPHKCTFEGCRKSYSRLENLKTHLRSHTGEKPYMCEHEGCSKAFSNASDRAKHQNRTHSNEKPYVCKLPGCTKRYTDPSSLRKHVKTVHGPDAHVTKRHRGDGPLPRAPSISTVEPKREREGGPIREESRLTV

B1: GLI1/tGLI1 consensus probe (dsDNA)
DNA 1: CGAAGAGACCACCCAGGTAGCT
DNA 2: AGCTACCTGGGTGGTCTCTTCG
Consider B1, for which the binding result is “binds”.
